Experimental data as given in patent US20060122105A1, “Method of improing the growth performance of an animal” (priority 2001, published 2006).

Assays:
Assay type in all cases: in vivo
[1] = Growth performance of pigs treated with IL-1ra or saline at zero, reduced and normal antibiotic medication (Example 2); conditions: for total group weight at the end of the weaner phase: FIG. 10
Description: Recombinant porcine IL-1ra was expressed in E. coli and purified using a polyhis tag system. IL-1ra was tested for biological activity in a bioassay prior to the start of the experiment.
The experiment was undertaken in a commercial environment where the pigs were weaned at 28 days of age. All injections were 1 ml. There were 16 pigs per treatment, 8 males and 8 females per treatment. The mean weight of treatment groups were similar at the start of the experiment.
A. Saline injection, 1 ml IM neck muscle.
B. 100 ug IL-1ra injection, 1 ml IM neck muscle. Injections were administered twice weekly during the weaner stage, and weekly throughout the grower and finisher stages.
Pigs were weaned and weighed at the commencement of the experiment (D0, W0). Weights were recorded weekly throughout the weaner phase (W0-W6), during the grower phase (W9), at the end of the grower phase (W13), during the finisher phase (W 16) and at the end of the finisher phase prior to slaughter at W19. Blood samples were collected at the start of the experiment and at the end of the weaner phase, grower phase and finisher phase. Haematology and immunological analyses were performed. At slaughter, carcass characteristics including P2 backfat measurements and dressed carcass weight were noted.

haemorrhagic E. coli = assay: Haemorrhagic E. coli challenge of weaner pigs, prophylactic treatment (Example 3); conditions: for reduction of E. coli culture score at post-mortem compared to saline: FIG. 19
Description: Male weaner pigs, with a mean weight of 5.4 kg were allocated to groups of 8, with the mean weight being equalised between groups. Pigs were housed in group pens containing a replicate from each treatment group. Pigs were provided with pelleted feed and water ad libitum.
Pigs were treated with recombinant saline, IL-1ra or the antibiotic, Apralan, and challenged with E. coli according to the schedule outlined in Table 3. Saline, or 200 μg of IL-1ra were delivered intramuscularly in 1 ml doses. Apralan was delivered orally according to manufacturer's instructions at a dose of 12 mg/kg. E. coli challenges were delivered orally in an 8 ml dose containing 10^8 cfu/ml. Blood was sampled from pigs by venipuncture at −2 days, day 0, and +6 days from initial challenge with E. coli as outlined in Table 3. Blood was assayed for immunological parameters including white blood cell number, differential cell counts, lymphocyte subset enumeration, IgG levels and cytokine production. Pigs were weighed at day −2 and at the end of the trial on day 6.
Faecal samples were taken from each pig daily for 5 days from day 2 to day 6 after challenge; these samples were cultured on sheep blood agar to quantify E. coli load. Growth on sheep blood agar was scored from 0 to 5 (where 0 was no growth, 1 signified growth in the primary inoculum, 2 signified growth in the first streak, 3 signified growth in the 2nd streak, 4 signified growth in the 3rd streak, and 5 signified growth of E. coli in the final streak). The condition of faeces was noted as normal, wet or diarrhoea, as an indication of clinical signs.
At the conclusion of the experiment on day 7, pigs were euthanased and swabs were taken from different areas in the gastro-intestinal tract, including the small intestine (25%, 50% and 75% along the length of the small intestine), the caecum and colon, and from the faeces in situ. These post-mortem swabs were cultured on sheep blood agar to quantify E. coli load as described above.

[2] = tested on: Actinobacillus pleuropneumoniae (App); assay: App challenge of pigs, therapeutic IL-1ra at low and high doses or Excenel (Example 7); conditions: for feed consumed: FIG. 52
Description: Male pigs with a mean starting weight of 34.6 kg, were allocated to 4 treatment groups of 9 pigs each. Treatments were saline, IL-1ra at 2 μg per kg, IL-1ra at 10 μg per kg and Excenel, the current clinical treatment for App infection. Pigs were housed in pens of 3 pigs, with 3 replicates of each. Pigs were provided with pelleted feed and water ad libitum. The starting weights of each treatment group and each pen were equal prior to the start of the trial.
Pigs were anaesthetised and infected intratracheally with 7.5×10^5 pfu on day 0. Recombinant IL-1ra and saline were administered as 2ml doses, given subcutaneously behind the ear. Excenel was administered to pigs according to the manufacturer's instructions. Pigs were treated with IL-1ra, saline or Excenel at 24 h, 48 h and one week after challenge with App.
Blood was sampled from pigs by venipuncture at 0 h, 24 h, 48 h, 1 week and 2 weeks after infection. Blood was assayed for immunological parameters as previously described. Pigs were weighed the day prior to challenge, and days 6 and 13 after challenge.

B1: IL-1ra: Recombinant porcine IL-1ra expressed in E. coli and purified using a polyhis tag system (protein, UniProt Q29056 26-177, looked up)
Interleukin-1 receptor …: HPLGKRPCRMQAFRIWDVNQKTFYLRNNQLVAGYLQGPNTKLEEKIDVVPVEPHFVFLGIHGGKLCLSCVKSGDEMKLQLDAVNITDLRKNSEQDKRFTFIRSDSGPTTSFESAACPGWFLCTALEADQPVGLTNTPKAAVKVTKFYFQQDQ
modifications: polyhistidine tag
notes: Recombinant porcine IL-1ra expressed in E. coli and purified using a polyhis tag system
[1]; 100 ug IL-1ra, all 3 levels of medication, FIG. 8
  weight at the end of the weaner phase: weighed more than their saline treated counterparts
[1]; IL-1ra in absence of antibiotics, FIG. 13
  P2 backfat levels at slaughter: comparable to those of pigs treated with saline and provided full antibiotic medication
[1]; absence of antibiotic medication, FIG. 12
  finishing weight, more than saline treated pigs: 16.7%
[1]; absence of antibiotics, FIG. 9
  number of pigs experiencing weight loss or mortality over the weaner period: 2 out of 16 pigs
[1]; full medication
  total group weight at the end of the weaner phase: 451 kg
[1]; no medication
  total group weight at the end of the weaner phase: 369 kg
[1]; normal antibiotic administration
  increase in productivity (group weight vs saline): 11.1%
[1]; reduced antibiotic administration
  increase in productivity (group weight vs saline): 20.4%
[1]; reduced medication
  total group weight at the end of the weaner phase: 390 kg
[1]; regardless of medication level, FIG. 11
  weight at the end of the grower phase: heavier than all the saline treatment
[1]; twice weekly in weaner stage, weekly in grower and finisher stages
  deleterious effects of continuous administration: did not have any deleterious effects
[1]; zero antibiotic administration
  increase in productivity (group weight vs saline): 26.4%
Haemorrhagic E. coli; 5 days after E. coli challenge, FIG. 15
  decrease in faecal shedding, faecal scores tallied over the entire challenge period, compared to saline treated controls: 37%
Haemorrhagic E. coli; 5 days after E. coli challenge, FIG. 16
  recorded cases of wet faeces and diarrhoea (clinical signs): fewer recorded cases of wet faeces and diarrhoea
Haemorrhagic E. coli; FIG. 20
  group mean total E. coli culture score, all gut areas at post-mortem: less than 10 out of a possible 30
Haemorrhagic E. coli; anterior part of the small intestine
  reduction of E. coli culture score at post-mortem compared to saline: 71%
Haemorrhagic E. coli; caecum
  reduction of E. coli culture score at post-mortem compared to saline: 39%
Haemorrhagic E. coli; colon
  reduction of E. coli culture score at post-mortem compared to saline: 44%
Haemorrhagic E. coli; faecal condition, FIG. 17
  reduction in clinical signs compared to saline controls: 64%
Haemorrhagic E. coli; faecal cultures
  days on which bacterial shedding was significantly less than saline treated controls: 3/5
Haemorrhagic E. coli; faeces in situ
  reduction of E. coli culture score at post-mortem compared to saline: 23%
Haemorrhagic E. coli; mid small intestine
  reduction of E. coli culture score at post-mortem compared to saline: 51%
Haemorrhagic E. coli; post-mortem, FIG. 23
  reduction in E. coli in the hindgut area (caecum and colon) compared to saline controls: 42%
  reduction of bacterial load in the small intestine (foregut) compared with saline controls: 55%
Haemorrhagic E. coli; posterior small intestine
  reduction of E. coli culture score at post-mortem compared to saline: 47%
Haemorrhagic E. coli; total culture scores at post-mortem, FIG. 21
  reduction in the amount of E. coli in the gastro-intestinal tract compared to saline controls: 45%
Haemorrhagic E. coli; vs saline, FIG. 14
  period of reduced bacterial shedding in faeces after challenge: day 2 through to day 4
Haemorrhagic E. coli; ↓ (decrease)
  Change compared to saline treated controls: Change in clinical signs: 63.6%
  Change compared to saline treated controls: Change on faecal bacterial load: 36.5%
  Change compared to saline treated controls: E. coli at post-mortem: 44.6%
  Change compared to saline treated controls: E. coli in foregut: 55.4%
  Change compared to saline treated controls: E. coli in hindgut: 41.7%
  Change compared to saline treated controls: Presence of bacterial shedding in faeces: 3 days
[2]; IL-1ra at high dose (10 μg per kg)
  feed consumed: 1.8 kg of feed per day
[2]; IL-1ra at low dose (2 μg per kg), Excenel per manufacturer's instructions, FIG. 51
  weight gained in the second week of challenge: 5.7 kg
[2]; IL-1ra at low dose (2 μg per kg), Excenel per manufacturer's instructions
  feed consumed: 1.7 kg of feed per day
[2]; low dose IL-1ra, Excenel, compared to saline treated controls
  production of IL-8 in the caudal-mediastinal lymph nodes: reduced the production of IL-8
[2]; low dose IL-1ra, FIG. 53
  feed conversion ratio (FCR, feed:gain): 1.6
[2]; low dose IL-1ra, FIG. 54
  proliferative responses of lymphocytes in the presence of killed App: tended to have improved proliferative responses of lymphocytes
[2]; low doses, compared to other treatments, FIG. 55
  production of the pro-inflammatory cytokine IL-8 in lung tissue (mRNA at post-mortem): reduced the production
